Source: patent publication US20030152571A1 (GlaxoSmithKline, published 2003)

Key:
[1] = molecular target: rabbit αvβ3 receptor on rabbit smooth muscle cells (rabbit, UniProt A0A5F9DQF7 1-123); assay: cell-based or functional assay
[2] = molecular target: T1, human vitronectin receptor αvβ3 purified from human placenta (human, UniProt P06756 31-1048; P05106 27-788); assay: not stated ('depending on the assay employed')
T1 construct: mature; Detergent-solubilised native heterodimer; also called αvβ3 receptor; human αvβ3 protein receptor
T1 sequence (P06756 31-1048, form in doubt, chain 1 of 2): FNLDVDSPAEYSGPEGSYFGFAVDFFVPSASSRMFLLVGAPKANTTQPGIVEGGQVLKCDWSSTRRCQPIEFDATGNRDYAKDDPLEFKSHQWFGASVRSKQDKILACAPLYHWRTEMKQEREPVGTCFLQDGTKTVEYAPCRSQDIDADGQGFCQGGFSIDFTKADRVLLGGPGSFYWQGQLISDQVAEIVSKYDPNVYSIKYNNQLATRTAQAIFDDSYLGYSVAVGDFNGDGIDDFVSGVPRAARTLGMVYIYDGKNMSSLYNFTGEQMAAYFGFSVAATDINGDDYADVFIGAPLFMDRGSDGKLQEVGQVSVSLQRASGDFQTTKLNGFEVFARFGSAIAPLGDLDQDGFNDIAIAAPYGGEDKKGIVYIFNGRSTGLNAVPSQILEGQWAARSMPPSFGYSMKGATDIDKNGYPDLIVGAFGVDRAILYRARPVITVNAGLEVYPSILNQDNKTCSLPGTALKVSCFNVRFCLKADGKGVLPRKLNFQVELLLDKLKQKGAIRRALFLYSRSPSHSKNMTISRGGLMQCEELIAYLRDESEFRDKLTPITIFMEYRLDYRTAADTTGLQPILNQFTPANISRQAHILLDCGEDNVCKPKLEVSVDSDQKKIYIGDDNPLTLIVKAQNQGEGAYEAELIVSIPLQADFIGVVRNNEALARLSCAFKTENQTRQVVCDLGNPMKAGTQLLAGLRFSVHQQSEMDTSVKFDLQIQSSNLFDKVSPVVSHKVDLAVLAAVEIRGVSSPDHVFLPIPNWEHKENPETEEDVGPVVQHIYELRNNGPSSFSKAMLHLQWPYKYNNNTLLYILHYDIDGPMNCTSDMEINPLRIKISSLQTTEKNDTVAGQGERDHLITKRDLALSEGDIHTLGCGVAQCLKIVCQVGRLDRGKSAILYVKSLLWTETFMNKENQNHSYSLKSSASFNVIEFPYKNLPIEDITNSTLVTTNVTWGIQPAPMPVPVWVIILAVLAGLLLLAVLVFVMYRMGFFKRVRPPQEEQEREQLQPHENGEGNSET
T1 sequence (P05106 27-788, form in doubt, chain 2 of 2): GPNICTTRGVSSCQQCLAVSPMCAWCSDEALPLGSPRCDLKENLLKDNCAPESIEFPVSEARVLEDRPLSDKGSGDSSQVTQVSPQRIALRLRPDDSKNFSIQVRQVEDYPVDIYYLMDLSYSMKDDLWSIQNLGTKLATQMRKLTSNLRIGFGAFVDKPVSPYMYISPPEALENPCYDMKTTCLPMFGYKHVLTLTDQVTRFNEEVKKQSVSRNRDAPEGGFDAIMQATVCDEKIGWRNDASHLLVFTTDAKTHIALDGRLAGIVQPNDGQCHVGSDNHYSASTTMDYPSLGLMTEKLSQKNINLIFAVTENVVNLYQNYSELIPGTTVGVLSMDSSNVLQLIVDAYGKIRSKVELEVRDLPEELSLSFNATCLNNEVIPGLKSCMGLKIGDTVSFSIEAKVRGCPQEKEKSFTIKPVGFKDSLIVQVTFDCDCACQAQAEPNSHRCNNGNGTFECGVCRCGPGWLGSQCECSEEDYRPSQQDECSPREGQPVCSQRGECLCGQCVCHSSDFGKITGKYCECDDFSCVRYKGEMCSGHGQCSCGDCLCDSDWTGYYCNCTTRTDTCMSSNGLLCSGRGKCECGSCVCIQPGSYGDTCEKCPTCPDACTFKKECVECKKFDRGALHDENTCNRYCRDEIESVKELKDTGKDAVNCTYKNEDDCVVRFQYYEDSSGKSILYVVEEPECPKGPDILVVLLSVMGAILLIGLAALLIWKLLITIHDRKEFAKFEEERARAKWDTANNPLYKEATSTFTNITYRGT

[3] = molecular target: T1, human vitronectin receptor αvβ3 …; assay: BIAcore; immobilized αvβ3, mAb in solution
Description: (§1) The αᵥβ₃ was immobilized by inserting the αᵥβ₃ into a phospholipid vesicle and producing a hybrid bilayer membrane on a hydrophobic sensor surface. […] Samples of the mAbs were passed over this surface and the rates at which they bound and then dissociated from the surface were measured and analyzed using software provided with the instrument.

[4] = molecular target: T2, human αvβ3 receptor on cells or in tissue (human, UniProt P06756 31-1048; P05106 27-788); assay: method not stated; reference is the rabbit αvβ3 receptor
T2 construct: whole, on cells; also called native cell surface receptor
T2 sequence (P06756 31-1048, chain 1 of 2): as the sequence (P06756 31-1048, form in doubt, chain 1 of 2) above
T2 sequence (P05106 27-788, chain 2 of 2): as the sequence (P05106 27-788, form in doubt, chain 2 of 2) above

[5] = molecular target: T1, human vitronectin receptor αvβ3 …; assay: BIAcore, αvβ3 immobilized in a hybrid bilayer membrane on the sensor surface, mAb in solution
Description: as §1

[6] = molecular target: T1, human vitronectin receptor αvβ3 …; assay: BIAcore; αvβ3 in a hybrid bilayer membrane on the sensor, mAb at 100, 25, 6 nM in triplicate; αvβ3 immobilized in hybrid bilayer membrane on the sensor; mAb at 100, 25, 6 nM in triplicate
Description: as §1

[7] = molecular target: T2, human αvβ3 receptor on cells or in …; assay: cell-based or functional assay

Chain of rabbit αvβ3 receptor on rabbit smooth muscle cells (A0A5F9DQF7 entry or part of it): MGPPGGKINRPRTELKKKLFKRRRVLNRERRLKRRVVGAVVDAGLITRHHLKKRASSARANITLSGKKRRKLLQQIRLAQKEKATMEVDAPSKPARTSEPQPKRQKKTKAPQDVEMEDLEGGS

B1: murine monoclonal antibody D12 (antibody, V domains shown)
VH: EIQLQQSGPEVVKPGASVKVSCKASGYAFTSYNMYWVKQSHGKSLEWIGYIDPYNGDTFYNQKFKGKATLTVDKSSSTAYMHLNSLTSEDSAVFYCARQNYGSFAYWGQGTLVTVSA
VL: DIVLTQSPATLSVTPGDSVSLSCRASQSISNHLHWYQQRSHESPRLLIKYASQSISGIPSRFRGSGSGTDFTLNINILETEDFGMYFCQQSNSWPFTFGSGTNLEIKR
notes: also called mAb D12; murine D12
- IC50, rabbit SMC migration (% control) [1]: 18 µg/mL
- Kd [2]: 1 to 3 nM
- Kd [3]: 1.3 nM
- fold higher affinity against human αvβ3 than against the rabbit receptor [4]: 10 fold
- koff [5]: 0.00041 s⁻¹
- kon [5]: 770000 M⁻¹ s⁻¹
- Kd [6]: 0.53 nM

B2: humanized D12 antibody HZ-D12 (IgG1) (antibody, V domains shown)
VH: QVQLVQSGAEVKKPGASVKVSCKASGYAFTSYNMYWVRQAPGQGLEWIGYIDPYNGDTFYNQKFKGKATLTVDKSTSTAYMELSSLRSEDTAVYYCARQNYGSFAYWGQGTLVTVSS
VL: DIVLTQSPGTLSLSPGERATLSCRASQSISNHLHWYQQKPGQAPRLLIKYASQSISGIPSRFSGSGSGTDFTLTISRLEPEDFAVYYCQQSNSWPFTFGQGTKVEIK
notes: also called HuD12; D12HZHC 1-0 / D12HZLC 1-0
- IC50 (read off the curve), adhesion of αvβ3-transfected HEK293 cells to vitronectin (O.D. 600nM) [7]: ~0.1 µg/mL
- IC50, rabbit SMC migration (% control) [1]: 42 µg/mL
- Kd [3]: 1 nM

B3: humanized D12 antibody HZ-D12 (IgG4) (antibody, V domains shown)
VH: B2 VH
VL: B2 VL
- Kd [3]: 1.1 nM
